{
  "source": "patent US20240409635A1",
  "molecular_target": "keyhole limpet haemocyanin",
  "test": "ELISA, KLH coated, 100 nM antibody",
  "data": [
    {"substance": "Ofatumumab (antibody)", "values": [
      {"measurement": "absorbance ratio to PBS blank", "value": 1.15}
    ]},
    {"substance": "Adalimumab (antibody)", "values": [
      {"measurement": "absorbance ratio to PBS blank", "value": 1.03}
    ]}
  ]
}
